Key:
CALML5 (human) = CALML5 (human) (UniProt Q9NZT1); assay: control IP with IgG, lysate of cells with N-FLAG B3GNT2, mass spectrometry
PPFIBP1 (human) = PPFIBP1 (human) (UniProt Q86W92); assay: as above
SYNPO (human) = SYNPO (human) (UniProt Q8N3V7); assay: as above
IL13RA2 (human) = IL13RA2 (human) (UniProt Q14627); assay: as above
IMMT (human) = IMMT (human) (UniProt Q16891); assay: as above
RPS14 (human) = RPS14 (human) (UniProt P62263); assay: as above
KCTD5 (human) = KCTD5 (human) (UniProt Q9NXV2); assay: as above
GBF1 (human) = GBF1 (human) (UniProt Q92538); assay: as above
LCN1 (human) = LCN1 (human) (UniProt P31025); assay: as above
RPL28 (human) = RPL28 (human) (UniProt P46779); assay: as above
RPL38 (human) = RPL38 (human) (UniProt P63173); assay: as above
SERPINB3 (human) = SERPINB3 (human) (UniProt P29508); assay: as above
RPL7 (human) = RPL7 (human) (UniProt P18124); assay: as above
PKM (human) = PKM (human) (UniProt P14618); assay: as above
ARG1 = ARG1 (UniProt P05089); assay: co-IP, IgG control, N-FLAG B3GNT2 cell lysate, mass spectrometry
RPL5 = RPL5 (UniProt P46777); assay: as above
RPL27A = RPL27A (UniProt P46776); assay: as above
RPS2 = RPS2 (UniProt P15880); assay: as above
POF1B = POF1B (UniProt Q8WVV4); assay: as above
EIF4G1 = EIF4G1 (UniProt Q04637); assay: as above
RPL19 = RPL19 (UniProt P84098); assay: as above
RPL37A = RPL37A (UniProt P61513); assay: as above
SSRP1 = SSRP1 (UniProt Q08945); assay: as above
TXN = TXN (UniProt P10599); assay: as above
NCCRP1 = NCCRP1 (UniProt Q6ZVX7); assay: as above
TMEM59 = TMEM59 (UniProt Q9BXS4); assay: as above
RPS16 = RPS16 (UniProt P62249); assay: as above
SRSF1 = SRSF1 (UniProt Q07955); assay: as above
RPS8 = RPS8 (UniProt P62241); assay: as above
EMD = EMD (UniProt P50402); assay: as above
SRSF3 = SRSF3 (UniProt P84103); assay: as above
RPS23 = RPS23 (UniProt P62266); assay: as above
CDSN = CDSN (UniProt Q15517); assay: as above
DDX20 = DDX20 (UniProt Q9UHI6); assay: as above
TNKS1BP1 = TNKS1BP1 (UniProt Q9C0C2); assay: as above
HIST1H1E = HIST1H1E (UniProt P10412); assay: as above
RPS13 = RPS13 (UniProt P62277); assay: as above
MTCH2 = MTCH2 (UniProt Q9Y6C9); assay: as above
PBXIP1 = PBXIP1 (UniProt Q96AQ6); assay: as above
LIMA1 = LIMA1 (UniProt Q9UHB6); assay: as above
LIMA1, sequence (Q9UHB6 other isoform, or with tags, fused parts or gaps limits assumed): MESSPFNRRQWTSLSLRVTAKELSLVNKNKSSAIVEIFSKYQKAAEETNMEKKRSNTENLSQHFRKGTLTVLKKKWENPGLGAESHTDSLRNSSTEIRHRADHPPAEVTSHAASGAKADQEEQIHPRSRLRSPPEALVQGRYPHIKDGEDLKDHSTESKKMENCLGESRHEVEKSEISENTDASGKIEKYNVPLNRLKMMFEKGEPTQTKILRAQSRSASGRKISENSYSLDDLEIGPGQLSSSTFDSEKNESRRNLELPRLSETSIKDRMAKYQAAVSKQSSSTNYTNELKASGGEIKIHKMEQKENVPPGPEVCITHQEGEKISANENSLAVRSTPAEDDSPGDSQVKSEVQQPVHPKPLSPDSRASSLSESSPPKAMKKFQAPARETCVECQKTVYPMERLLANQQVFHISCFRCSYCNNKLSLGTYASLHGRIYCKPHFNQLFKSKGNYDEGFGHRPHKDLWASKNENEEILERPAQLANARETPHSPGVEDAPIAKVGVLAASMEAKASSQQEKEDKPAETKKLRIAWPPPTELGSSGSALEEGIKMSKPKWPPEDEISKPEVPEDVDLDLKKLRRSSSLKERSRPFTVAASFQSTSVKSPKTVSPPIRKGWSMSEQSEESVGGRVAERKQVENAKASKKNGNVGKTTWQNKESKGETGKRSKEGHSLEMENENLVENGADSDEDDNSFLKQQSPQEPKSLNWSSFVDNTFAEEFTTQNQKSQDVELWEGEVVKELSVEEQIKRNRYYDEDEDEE

IL13RA2 (human), sequence (Q14627 27-380 limits assumed): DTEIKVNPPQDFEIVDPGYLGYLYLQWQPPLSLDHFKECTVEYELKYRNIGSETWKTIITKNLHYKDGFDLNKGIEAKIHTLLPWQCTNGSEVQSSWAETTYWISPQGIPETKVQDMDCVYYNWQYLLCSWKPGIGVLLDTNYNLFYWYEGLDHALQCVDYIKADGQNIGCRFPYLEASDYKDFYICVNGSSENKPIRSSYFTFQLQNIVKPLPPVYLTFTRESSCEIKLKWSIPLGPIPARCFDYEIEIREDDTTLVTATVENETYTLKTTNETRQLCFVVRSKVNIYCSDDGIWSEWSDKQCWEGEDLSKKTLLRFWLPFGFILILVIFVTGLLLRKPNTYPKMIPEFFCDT
PKM (human), sequence (P14618 2-531 limits assumed): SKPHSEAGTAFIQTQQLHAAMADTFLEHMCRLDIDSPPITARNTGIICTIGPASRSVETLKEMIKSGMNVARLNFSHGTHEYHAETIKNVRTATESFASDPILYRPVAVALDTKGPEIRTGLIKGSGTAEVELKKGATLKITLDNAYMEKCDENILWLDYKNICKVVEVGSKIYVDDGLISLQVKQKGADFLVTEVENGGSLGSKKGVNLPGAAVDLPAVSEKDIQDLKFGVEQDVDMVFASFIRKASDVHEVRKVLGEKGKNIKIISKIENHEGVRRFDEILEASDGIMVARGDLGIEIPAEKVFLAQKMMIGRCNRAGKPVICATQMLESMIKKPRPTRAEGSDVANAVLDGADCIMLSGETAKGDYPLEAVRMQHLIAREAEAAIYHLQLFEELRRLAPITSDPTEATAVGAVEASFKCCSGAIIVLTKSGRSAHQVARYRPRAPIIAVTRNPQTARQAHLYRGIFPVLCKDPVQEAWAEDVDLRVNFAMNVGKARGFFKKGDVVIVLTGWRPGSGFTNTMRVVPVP
IMMT (human), sequence (Q16891 other isoform, or with tags, fused parts or gaps limits assumed): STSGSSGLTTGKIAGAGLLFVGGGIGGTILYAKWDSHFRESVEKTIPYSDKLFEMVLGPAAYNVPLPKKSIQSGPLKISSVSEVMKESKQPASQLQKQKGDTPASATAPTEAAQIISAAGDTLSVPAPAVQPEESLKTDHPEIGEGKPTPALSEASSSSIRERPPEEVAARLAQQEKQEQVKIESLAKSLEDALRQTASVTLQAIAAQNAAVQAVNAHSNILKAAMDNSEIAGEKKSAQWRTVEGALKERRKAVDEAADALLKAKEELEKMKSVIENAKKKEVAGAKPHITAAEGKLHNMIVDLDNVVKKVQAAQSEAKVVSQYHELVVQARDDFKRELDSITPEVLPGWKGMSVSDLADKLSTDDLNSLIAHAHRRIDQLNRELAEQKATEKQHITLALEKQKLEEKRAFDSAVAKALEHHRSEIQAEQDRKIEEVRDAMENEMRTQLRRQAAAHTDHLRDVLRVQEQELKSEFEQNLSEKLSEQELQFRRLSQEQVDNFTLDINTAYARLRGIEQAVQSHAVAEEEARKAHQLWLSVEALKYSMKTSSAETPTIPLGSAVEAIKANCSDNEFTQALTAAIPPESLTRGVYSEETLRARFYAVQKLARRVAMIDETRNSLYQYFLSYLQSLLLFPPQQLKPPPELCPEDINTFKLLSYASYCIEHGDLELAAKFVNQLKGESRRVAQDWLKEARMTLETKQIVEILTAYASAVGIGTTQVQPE
SRSF1, sequence (Q07955 2-248 limits assumed): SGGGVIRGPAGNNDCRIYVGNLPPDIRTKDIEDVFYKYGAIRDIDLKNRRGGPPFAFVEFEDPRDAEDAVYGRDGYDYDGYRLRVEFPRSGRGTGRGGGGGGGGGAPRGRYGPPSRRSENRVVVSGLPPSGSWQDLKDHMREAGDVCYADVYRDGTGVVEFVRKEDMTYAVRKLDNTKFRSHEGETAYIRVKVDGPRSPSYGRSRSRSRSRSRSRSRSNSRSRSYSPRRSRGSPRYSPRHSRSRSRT
TNKS1BP1, sequence (Q9C0C2 whole entry): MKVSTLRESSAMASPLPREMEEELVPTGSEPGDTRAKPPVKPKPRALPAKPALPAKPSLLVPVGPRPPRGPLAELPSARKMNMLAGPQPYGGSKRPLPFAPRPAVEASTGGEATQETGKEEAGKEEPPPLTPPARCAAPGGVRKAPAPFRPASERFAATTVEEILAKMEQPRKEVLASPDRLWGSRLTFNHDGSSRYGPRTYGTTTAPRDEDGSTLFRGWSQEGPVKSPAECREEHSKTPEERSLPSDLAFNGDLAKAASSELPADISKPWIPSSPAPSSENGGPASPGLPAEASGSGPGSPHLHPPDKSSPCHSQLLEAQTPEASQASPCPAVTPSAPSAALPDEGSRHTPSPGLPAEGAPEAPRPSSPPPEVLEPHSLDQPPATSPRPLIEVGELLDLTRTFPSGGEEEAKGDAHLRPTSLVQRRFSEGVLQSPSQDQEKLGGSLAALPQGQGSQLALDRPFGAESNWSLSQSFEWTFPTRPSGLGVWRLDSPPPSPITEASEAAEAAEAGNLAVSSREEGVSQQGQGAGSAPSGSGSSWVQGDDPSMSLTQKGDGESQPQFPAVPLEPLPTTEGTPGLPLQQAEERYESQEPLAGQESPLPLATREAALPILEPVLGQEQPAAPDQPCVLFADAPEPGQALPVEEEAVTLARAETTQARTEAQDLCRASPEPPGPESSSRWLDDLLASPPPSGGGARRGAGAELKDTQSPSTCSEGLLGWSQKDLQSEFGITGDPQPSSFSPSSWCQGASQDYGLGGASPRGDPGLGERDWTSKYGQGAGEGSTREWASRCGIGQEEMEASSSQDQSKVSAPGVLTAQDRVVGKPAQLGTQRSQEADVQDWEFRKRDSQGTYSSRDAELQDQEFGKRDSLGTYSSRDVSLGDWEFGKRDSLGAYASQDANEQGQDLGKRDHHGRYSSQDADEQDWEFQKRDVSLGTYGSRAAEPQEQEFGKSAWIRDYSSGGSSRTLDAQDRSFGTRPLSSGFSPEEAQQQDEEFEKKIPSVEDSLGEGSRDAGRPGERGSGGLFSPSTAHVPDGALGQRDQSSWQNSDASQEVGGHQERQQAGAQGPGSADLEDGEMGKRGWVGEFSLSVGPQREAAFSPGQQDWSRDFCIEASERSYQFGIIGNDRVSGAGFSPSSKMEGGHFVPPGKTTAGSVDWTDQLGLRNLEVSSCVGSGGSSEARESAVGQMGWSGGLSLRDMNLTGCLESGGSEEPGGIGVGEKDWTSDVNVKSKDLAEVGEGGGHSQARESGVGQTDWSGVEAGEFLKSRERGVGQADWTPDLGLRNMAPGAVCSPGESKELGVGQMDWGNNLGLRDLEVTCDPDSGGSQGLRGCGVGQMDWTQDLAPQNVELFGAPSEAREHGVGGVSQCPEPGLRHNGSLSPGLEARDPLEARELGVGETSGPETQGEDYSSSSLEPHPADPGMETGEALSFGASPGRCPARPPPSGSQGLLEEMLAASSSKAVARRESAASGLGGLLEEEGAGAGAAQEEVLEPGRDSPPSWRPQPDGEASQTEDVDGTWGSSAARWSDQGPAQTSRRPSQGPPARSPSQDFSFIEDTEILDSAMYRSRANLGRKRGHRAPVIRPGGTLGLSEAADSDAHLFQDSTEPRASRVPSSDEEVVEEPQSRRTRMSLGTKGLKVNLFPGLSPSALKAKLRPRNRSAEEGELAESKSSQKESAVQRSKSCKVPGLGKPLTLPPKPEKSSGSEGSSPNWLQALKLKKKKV
SRSF3, sequence (P84103 whole entry): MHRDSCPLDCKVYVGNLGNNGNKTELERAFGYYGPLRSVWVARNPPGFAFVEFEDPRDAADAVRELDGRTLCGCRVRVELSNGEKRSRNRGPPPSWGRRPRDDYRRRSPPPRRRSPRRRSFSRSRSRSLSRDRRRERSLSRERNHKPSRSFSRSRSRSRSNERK
HIST1H1E, sequence (P10412 2-219 limits assumed): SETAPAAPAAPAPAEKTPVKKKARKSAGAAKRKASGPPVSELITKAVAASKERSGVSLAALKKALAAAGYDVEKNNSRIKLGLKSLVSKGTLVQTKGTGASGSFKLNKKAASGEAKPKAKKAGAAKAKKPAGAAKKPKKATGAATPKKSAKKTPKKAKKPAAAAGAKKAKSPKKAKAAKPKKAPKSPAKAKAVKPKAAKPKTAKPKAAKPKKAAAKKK
TMEM59, sequence (Q9BXS4 36-323 limits assumed): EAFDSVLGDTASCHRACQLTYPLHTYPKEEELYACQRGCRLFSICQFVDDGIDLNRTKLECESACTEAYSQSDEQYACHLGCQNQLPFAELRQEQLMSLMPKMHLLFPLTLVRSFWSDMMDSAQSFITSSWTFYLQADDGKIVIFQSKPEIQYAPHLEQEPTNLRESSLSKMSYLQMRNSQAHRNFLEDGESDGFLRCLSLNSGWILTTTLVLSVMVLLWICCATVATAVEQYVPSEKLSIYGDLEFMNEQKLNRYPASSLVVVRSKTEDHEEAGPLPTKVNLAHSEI

**Q.** What does the source list for “IgG control (Millipore Sigma 12-371) (antibody)”?
**A.** co-IP mass spectrometry count (CALML5 (human)): 0; co-IP mass spectrometry count (PPFIBP1 (human)): 0; co-IP mass spectrometry count (SYNPO (human)): 4; co-IP mass spectrometry count (IL13RA2 (human)): 0; co-IP mass spectrometry count (IMMT (human)): 17; co-IP mass spectrometry count (RPS14 (human)): 9; co-IP mass spectrometry count (KCTD5 (human)): 0; co-IP mass spectrometry count (GBF1 (human)): 0; co-IP mass spectrometry count (LCN1 (human)): 9; co-IP mass spectrometry count (RPL28 (human)): 3; co-IP mass spectrometry count (RPL38 (human)): 5; co-IP mass spectrometry count (SERPINB3 (human)): 3; co-IP mass spectrometry count (RPL7 (human)): 5; co-IP mass spectrometry count (PKM (human)): 2; co-IP mass spectrometry count (ARG1): 4; co-IP mass spectrometry count (RPL5): 0; co-IP mass spectrometry count (RPL27A): 3; co-IP mass spectrometry count (RPS2): 10; co-IP mass spectrometry count (POF1B): 0; co-IP mass spectrometry count (EIF4G1): 2; co-IP mass spectrometry count (RPL19): 2; co-IP mass spectrometry count (RPL37A): 4; co-IP mass spectrometry count (SSRP1): 0; co-IP mass spectrometry count (TXN): 3; co-IP mass spectrometry count (NCCRP1): 4; co-IP mass spectrometry count (TMEM59): 0; co-IP mass spectrometry count (RPS16): 10; co-IP mass spectrometry count (SRSF1): 5; co-IP mass spectrometry count (RPS8): 7; co-IP mass spectrometry count (EMD): 0; co-IP mass spectrometry count (SRSF3): 4; co-IP mass spectrometry count (RPS23): 6; co-IP mass spectrometry count (CDSN): 0; co-IP mass spectrometry count (DDX20): 0; co-IP mass spectrometry count (TNKS1BP1): 4; co-IP mass spectrometry count (HIST1H1E): 2; co-IP mass spectrometry count (RPS13): 2; co-IP mass spectrometry count (MTCH2): 0; co-IP mass spectrometry count (PBXIP1): 0; co-IP mass spectrometry count (LIMA1): 3
